The source of these data is publication PMC5592240, “Succinyl-CoA:Mesaconate CoA-Transferase and Mesaconyl-CoA Hydratase, Enzymes of the Methylaspartate Cycle in Haloarcula hispanica” (Frontiers in Microbiology, 2017).

Substrate in data set [1]: C/C(=C\C(=O)SCCNC(=O)CCNC(=O)[C@H](O)C(C)(C)COP(=O)(O)OP(=O)(O)OC[C@H]1O[C@@H](n2cnc3c(N)ncnc32)[C@H](O)[C@@H]1OP(=O)(O)O)C(=O)O
Put plainly: UPLC of CoA esters (hydration to (S)-citramalyl-CoA). The class given is biochemical, Haloarcula hispanica. The settings on record: 100 mM Tris/HCl pH 7.8, 3 M KCl, 5 mM MgCl2, 37°C, forward direction (hydration), apparent. The source says:
UPLC of CoA esters (hydration to (S)-citramalyl-CoA) on mesaconyl-CoA hydratase (Mch, Hah_1340)

Data set [2] concerns the molecule itself. Put plainly: SEC; analytical gel filtration, 24-ml Superdex 200 Increase 10/300 GL, 50 mM Tris/HCl pH 8.0 with 2 M KCl, 0.75 ml/min; calibrated with alcohol dehydrogenase (150 kDa), bovine serum albumin (66 kDa), carbonic anhydrase (29 kDa), cytochrome c (12.4 kDa); native mass against the monomer's mass. Background: In gel filtration, larger molecules generally elute earlier.

Substrate in data set [3]: C[C@H](C(=O)SCCNC(=O)CCNC(=O)[C@H](O)C(C)(C)COP(=O)(O)OP(=O)(O)OC[C@H]1O[C@@H](n2cnc3c(N)ncnc32)[C@H](O)[C@@H]1OP(=O)(O)O)[C@@H](O)C(=O)O
Put plainly: UPLC of CoA esters (dehydration to mesaconyl-C1-CoA). The class given is biochemical, Haloarcula hispanica. As to conditions: 100 mM Tris/HCl pH 7.8, 3 M KCl, 5 mM MgCl2, 37°C, reverse direction (dehydration), apparent. An excerpt: UPLC of CoA esters (dehydration to mesaconyl-C1-CoA) on mesaconyl-CoA hydratase (Mch, Hah_1340)

Substrate in data set [4]: CC(C)(COP(=O)(O)OP(=O)(O)OC[C@H]1O[C@@H](n2cnc3c(N)ncnc32)[C@H](O)[C@@H]1OP(=O)(O)O)[C@@H](O)C(=O)NCCC(=O)NCCSC(=O)C[C@H](O)C(=O)O
Put plainly: UPLC of CoA esters (dehydration). The class given is biochemical, Haloarcula hispanica. As to conditions: 100 mM Tris/HCl pH 7.8, 3 M KCl, 5 mM MgCl2, 37°C, apparent. The source says:
(§1) UPLC of CoA esters (dehydration) on mesaconyl-CoA hydratase (Mch, Hah_1340)

Substrate in data set [5]: CC(C)(COP(=O)(O)OP(=O)(O)OC[C@H]1O[C@@H](n2cnc3c(N)ncnc32)[C@H](O)[C@@H]1OP(=O)(O)O)[C@@H](O)C(=O)NCCC(=O)NCCSC(=O)C[C@](C)(O)C(=O)O
Put plainly: UPLC of CoA esters (dehydration). The class given is biochemical, Haloarcula hispanica. As to conditions: 100 mM Tris/HCl pH 7.8, 3 M KCl, 5 mM MgCl2, 37°C, apparent.
Text: as §1

Substrate in data set [6]: C/C(=C\C(=O)O)C(=O)SCCNC(=O)CCNC(=O)[C@H](O)C(C)(C)COP(=O)(O)OP(=O)(O)OC[C@H]1O[C@@H](n2cnc3c(N)ncnc32)[C@H](O)[C@@H]1OP(=O)(O)O
In words: UPLC of CoA esters (hydration to beta-methylmalyl-CoA). The settings on record: 100 mM Tris/HCl pH 7.8, 3 M KCl, 5 mM MgCl2, 37°C, forward direction (hydration), apparent. The data set is classed as biochemical, Haloarcula hispanica. An excerpt:
UPLC of CoA esters (hydration to beta-methylmalyl-CoA) on mesaconyl-CoA hydratase (Mch, Hah_1340)

Substrate in data set [7]: CC(C)(COP(=O)(O)OP(=O)(O)OC[C@H]1O[C@@H](n2cnc3c(N)ncnc32)[C@H](O)[C@@H]1OP(=O)(O)O)[C@@H](O)C(=O)NCCC(=O)NCCSC(=O)CCC(=O)O
In words: UPLC of mesaconyl-CoA formation. The class given is biochemical, Haloarcula hispanica. As to conditions: CoA donor, 10 mM mesaconate, 100 mM Tris/HCl pH 7.8, 3 M KCl, 5 mM MgCl2, 37°C, apparent. The source says:
(§2) UPLC of mesaconyl-CoA formation on succinyl-CoA:mesaconate CoA-transferase (Mct, Hah_1336)

Substrate in data set [8]: C/C(=C\C(=O)O)C(=O)O
Put plainly: UPLC of mesaconyl-CoA formation. The data set is classed as biochemical, Haloarcula hispanica. The settings on record: CoA acceptor, 1 mM succinyl-CoA, 100 mM Tris/HCl pH 7.8, 3 M KCl, 5 mM MgCl2, 37°C, apparent.
Text: as §2

Substrate in data set [9]: C=CC(=O)O
Put plainly: UPLC of CoA-ester formation. The class given is biochemical, Haloarcula hispanica. The settings on record: CoA acceptor, 1 mM succinyl-CoA, 100 mM Tris/HCl pH 7.8, 3 M KCl, 5 mM MgCl2, 37°C, apparent. The source says:
(§3) UPLC of CoA-ester formation on succinyl-CoA:mesaconate CoA-transferase (Mct, Hah_1336)

Substrate in data set [10]: O=C(O)CCCC(=O)O
Put plainly: UPLC of CoA-ester formation. The class given is biochemical, Haloarcula hispanica. The settings on record: CoA acceptor, 1 mM succinyl-CoA, 100 mM Tris/HCl pH 7.8, 3 M KCl, 5 mM MgCl2, 37°C, apparent.
Text: as §3

Substrate in data set [11]: CC(CC(=O)O)C(=O)O
In words: UPLC of CoA-ester formation. The class given is biochemical, Haloarcula hispanica. The settings on record: CoA acceptor, 1 mM succinyl-CoA, 100 mM Tris/HCl pH 7.8, 3 M KCl, 5 mM MgCl2, 37°C, apparent.
Text: as §3

B1: mesaconyl-CoA hydratase from Haloarcula hispanica (enzyme, UniProt G0HQ35 1-358, looked up)
chain: MTDWTDPDALDLSDGETFDSLLDRADTREKGHFFEFFAEGDELAHDPGLRLSHHGSEQWMGQTLNHDPAYWRADTAQERGFEERPVHPDYLLACVMGITVEDLSEKGGYFLGRDDVEFHQPATAGTPLSVTSTVVDTRTSSSRPKYGIVTWETEGRDRETGETLVSYRRTNMIPRREPAATDGGAVGEQDEGGPAMPDTLLSPDGERFGDFQAALDTAREENAAVAYRHERGRTMDDQLVAGLPLSTLNTARQHHNRDEMADSPSGDIVAYGDVTRSIALAHARSDEATYREQRFADERFHDFVTLGDTVYGFTRVLDCDPDAGPERAGAVTFEHVAFNQEQTPVYSGRRTAHIQRHQ
notes: mesaconyl-CoA hydratase (Mch, Hah_1340) of Haloarcula hispanica; the 1.07-kb mch gene (358 amino acids, predicted molecular mass 40 kDa) was cloned into pTA963; No removal of the tag is described; also called Mch; Hah_1340; source: Haloferax volcanii H1209 (pTA963), purified (Ni-NTA, gel filtration); not shown: His6, N-terminal, kept
By Km is commonly meant the concentration of substrate that gives half-maximal velocity. A word on the Vmax: it is the top rate of the reaction or transport when substrate is in excess. As usually defined, the kcat/Km is the second-order rate constant that governs catalysis at low substrate concentration. As a reminder, the stoichiometry N is a count of units in the complex or per binding partner. As for B1, the Km turned out to be 180 ± 10 µM in [1]; 350 ± 50 µM in data set [3]; 320 ± 50 µM in data set [4]; 2600 ± 300 µM in data set [5]; 1000 ± 100 µM in data set [6]. The Vmax came out at 1.12 µmol/min/mg in data set [1]; 266 µmol/min/mg in data set [3]; 3.6 µmol/min/mg in data set [4]; 1.6 µmol/min/mg in data set [5]; 20.7 µmol/min/mg in [6]. Besides, the kcat/Km in data set [1] amounted to 2000 M⁻¹ s⁻¹; in data set [3] it was 254000 M⁻¹ s⁻¹; in [4] it was 3800 M⁻¹ s⁻¹; in data set [5] it was 200 M⁻¹ s⁻¹; in data set [6], 6900 M⁻¹ s⁻¹. Moreover, the “stoichiometry N” value in [2] is 2.

B2: succinyl-CoA:mesaconate CoA-transferase from Haloarcula hispanica (enzyme, UniProt G0HQ31 1-396, looked up)
chain: MGALDDLRVLDLTQVLAGPYCTMLLADMGADVVKVERPGGDLIRSNPPFVSDGDEEAYGGYFQSVNRGKRSLELDLGTDEDREAFLSLVERADVVVENFKAGTMEKFDCGYETLREHNPDLIYSSIRGFGDPRTGETHRQGQPSFDLIAQALGGVMEITGQSDGPPTKVGPGVGDLFTAVLNAVGILAAVHHRERTGEGQYVDTAMYDSMVSLCERTVYQYSCDGESPTRQGNSHPTLFPYDSFEAADGHVVIAAFADGHWETLCEAMERPDLAADYPDAGSRIANRESLRREIADWTATIDSETLLDLLEGRVPAAPVQNTADIFDDPHIHDREMLTDVDQPGADEQITIAGSPIKMTETMPSPGGRAPLLDEHRAELLDEAGVGTGTNRVESDD
notes: succinyl-CoA:mesaconate CoA-transferase (Mct, Hah_1336) of Haloarcula hispanica; the 1.19-kb mct gene (396 amino acids, predicted molecular mass 43 kDa) was cloned into pTA963; No removal of the tag is described; also called Mct; Hah_1336; source: Haloferax volcanii H1209 (pTA963), purified (Ni-NTA, gel filtration); not shown: His6, N-terminal, kept
In general, kcat refers to the number of substrate molecules converted per active site and unit of time at saturation. For B2, in data set [2], the “stoichiometry N” value is 2. Moreover, the Km came out at 2800 ± 200 µM in data set [7]; 1300 ± 200 µM in data set [8]; 39300 ± 4600 µM in [9]; 40900 ± 3900 µM in data set [10]; 600 ± 100 µM in data set [11]. For the same protein, the Vmax in data set [7] was 69.2 µmol/min/mg; in data set [8], 17 µmol/min/mg; in data set [9], 6.2 µmol/min/mg; in [10], 18.1 µmol/min/mg; in data set [11] it was 11 µmol/min/mg. The kcat/Km in data set [7] was determined as 17800 M⁻¹ s⁻¹; in data set [8] it was 9800 M⁻¹ s⁻¹; in [9], 120 M⁻¹ s⁻¹; in data set [10] it was 320 M⁻¹ s⁻¹; in [11], 12400 M⁻¹ s⁻¹. For the same protein, the kcat in [8] amounted to 12.2 s⁻¹.
